This is an account of results in ChEMBL document CHEMBL1156528, “Acetyl-lysine analog peptides as mechanistic probes of protein deacetylases” (J Biol Chem, 2007).

Substrate in data set [1]: C[C@H](NC(=O)[C@H](CCCCNC(N)=O)NC(=O)CNC(=O)CNC(=O)[C@@H](NC(=O)[C@H](CO)NC(=O)[C@@H](N)CCCCN)[C@@H](C)O)C(=O)N1CCC[C@H]1C(=O)N[C@@H](CCCNC(=N)N)C(=O)N[C@@H](CCCCN)C(=O)N[C@@H](CCC(N)=O)C(=O)O
In words: (§1) Activity of Saccharomyces cerevisiae Hst2.

Substrate in data set [2]: CC(=O)NCCCC[C@H](NC(=O)CNC(=O)CNC(=O)[C@@H](NC(=O)[C@H](CO)NC(=O)[C@@H](N)CCCCN)[C@@H](C)O)C(=O)N[C@@H](C)C(=O)N1CCC[C@H]1C(=O)N[C@@H](CCCNC(=N)N)C(=O)N[C@@H](CCCCN)C(=O)N[C@@H](CCC(N)=O)C(=O)O
The description is as §1.

B1: NAD-dependent protein deacetylase HST2 (Saccharomyces cerevisiae S288c), P53686 (protein)
chain: MSVSTASTEMSVRKIAAHMKSNPNAKVIFMVGAGISTSCGIPDFRSPGTGLYHNLARLKLPYPEAVFDVDFFQSDPLPFYTLAKELYPGNFRPSKFHYLLKLFQDKDVLKRVYTQNIDTLERQAGVKDDLIIEAHGSFAHCHCIGCGKVYPPQVFKSKLAEHPIKDFVKCDVCGELVKPAIVFFGEDLPDSFSETWLNDSEWLREKITTSGKHPQQPLVIVVGTSLAVYPFASLPEEIPRKVKRVLCNLETVGDFKANKRPTDLIVHQYSDEFAEQLVEELGWQEDFEKILTAQGGMGDNSKEQLLEIVHDLENLSLDQSEHESADKKDKKLQRLNGHDSDEDGASNSSSSQKAAKE
Turning to B1, in data set [1], the Vmax was determined as 1.3 s⁻¹ and the kcat was 1.2 ×10⁻² /s. Moreover, the kcat in data set [2] was 0.2 s⁻¹.
